Test in all cases: cell-based or functional assay
Experiment [1] concerns the target human glucagon receptor (human, UniProt P47871 26-477).
The target in experiment [2] is T1, human glucose-dependent insulinotropic peptide receptor (human, UniProt P48546 22-466).
T1 sequence (looked up): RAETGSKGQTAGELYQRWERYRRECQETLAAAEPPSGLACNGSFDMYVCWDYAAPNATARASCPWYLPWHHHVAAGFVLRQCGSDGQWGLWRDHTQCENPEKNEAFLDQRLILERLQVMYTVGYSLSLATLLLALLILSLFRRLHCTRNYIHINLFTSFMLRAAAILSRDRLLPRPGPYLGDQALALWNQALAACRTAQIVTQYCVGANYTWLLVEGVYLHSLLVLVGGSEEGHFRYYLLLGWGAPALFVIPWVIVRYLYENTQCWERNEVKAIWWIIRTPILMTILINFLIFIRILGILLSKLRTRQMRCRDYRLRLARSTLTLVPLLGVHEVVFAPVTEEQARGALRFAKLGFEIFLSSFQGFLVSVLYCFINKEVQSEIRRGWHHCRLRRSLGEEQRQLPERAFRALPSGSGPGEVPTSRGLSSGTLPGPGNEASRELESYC

The target of experiment [3] is human GLP-1 receptor (human, UniProt P43220 24-463).

Starred links: 1 amine or outer side, 2 acyl side, 3 side chain; linkers in the order of their positions; H or OH if unused. Non-standard residues stand in square brackets, D forms with d. Groups on a side chain read outwards from the residue. No end group written: not given here. *: point of attachment. C20 diacid = O=C(O)CCCCCCCCCCCCCCCCCCC(=O)*; C18 diacid = O=C(O)CCCCCCCCCCCCCCCCC(=O)*; γGlu = O=C(O)[C@H](CCC(=O)[*:2])N[*:1]; αMeY = C[C@](N)(Cc1ccc(O)cc1)C(=O)O; αMeL = CC(C)C[C@](C)(N)C(=O)O; AEEA = NCCOCCOCC(=O)O; Aib = CC(C)(N)C(=O)O

Sequence of human glucagon receptor (P47871 26-477): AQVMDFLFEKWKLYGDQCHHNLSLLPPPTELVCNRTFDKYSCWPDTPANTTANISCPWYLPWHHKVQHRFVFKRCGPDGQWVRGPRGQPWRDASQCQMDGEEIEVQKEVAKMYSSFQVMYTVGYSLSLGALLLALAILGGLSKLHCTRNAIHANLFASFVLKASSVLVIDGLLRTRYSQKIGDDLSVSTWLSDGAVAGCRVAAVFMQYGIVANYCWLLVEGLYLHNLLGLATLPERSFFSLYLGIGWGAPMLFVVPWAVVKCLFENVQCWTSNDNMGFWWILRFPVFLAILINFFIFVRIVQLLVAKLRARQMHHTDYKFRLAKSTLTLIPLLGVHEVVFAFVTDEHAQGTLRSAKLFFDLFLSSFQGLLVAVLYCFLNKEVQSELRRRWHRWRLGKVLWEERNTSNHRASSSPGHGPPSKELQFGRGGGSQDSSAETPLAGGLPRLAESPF

B1: Example 91 (peptide)
peptide: Y[Aib]EGTFISDYSI[αMeL]LDKK([AEEA-AEEA-γGlu-C20 diacid])HQ[Aib]DFVE[αMeY]LLEGGPSSGAPPPS-NH2
modifications: N-terminus assumed
SMILES: CC[C@H](C)[C@H](NC(=O)[C@H](Cc1ccccc1)NC(=O)[C@@H](NC(=O)CNC(=O)[C@H](CCC(=O)O)NC(=O)C(C)(C)NC(=O)[C@@H](N)Cc1ccc(O)cc1)[C@@H](C)O)C(=O)N[C@@H](CO)C(=O)N[C@@H](CC(=O)O)C(=O)N[C@@H](Cc1ccc(O)cc1)C(=O)N[C@@H](CO)C(=O)N[C@H](C(=O)N[C@@](C)(CC(C)C)C(=O)N[C@@H](CC(C)C)C(=O)N[C@@H](CC(=O)O)C(=O)N[C@@H](CCCCN)C(=O)N[C@@H](CCCCNC(=O)COCCOCCNC(=O)COCCOCCNC(=O)CC[C@H](NC(=O)CCCCCCCCCCCCCCCCCCC(=O)O)C(=O)O)C(=O)N[C@@H](Cc1c[nH]cn1)C(=O)N[C@@H](CCC(N)=O)C(=O)NC(C)(C)C(=O)N[C@@H](CC(=O)O)C(=O)N[C@@H](Cc1ccccc1)C(=O)N[C@H](C(=O)N[C@@H](CCC(=O)O)C(=O)N[C@@](C)(Cc1ccc(O)cc1)C(=O)N[C@@H](CC(C)C)C(=O)N[C@@H](CC(C)C)C(=O)N[C@@H](CCC(=O)O)C(=O)NCC(=O)NCC(=O)N1CCC[C@H]1C(=O)N[C@@H](CO)C(=O)N[C@@H](CO)C(=O)NCC(=O)N[C@@H](C)C(=O)N1CCC[C@H]1C(=O)N1CCC[C@H]1C(=O)N1CCC[C@H]1C(=O)N[C@@H](CO)C(N)=O)C(C)C)[C@@H](C)CC
B1: in experiment [1], the “hGcgR cAMP Rel EC50” value is 0.289 µM. In addition, the “hGIPR cAMP Rel EC50” value in experiment [2] was 0.0321 nM. Moreover, the “hGLP1R cAMP Rel EC50” value in experiment [3] was 530 nM.

B2: Example 92 (peptide)
peptide: Y[Aib]EGTFISDYSI[αMeL]LDKIHQ[Aib]DFVEYK([AEEA-AEEA-γGlu-C20 diacid])LEQGPSSGAPPPS-NH2
modifications: N-terminus assumed
SMILES: CC[C@H](C)[C@H](NC(=O)[C@H](CCCCN)NC(=O)[C@H](CC(=O)O)NC(=O)[C@H](CC(C)C)NC(=O)[C@](C)(CC(C)C)NC(=O)[C@@H](NC(=O)[C@H](CO)NC(=O)[C@H](Cc1ccc(O)cc1)NC(=O)[C@H](CC(=O)O)NC(=O)[C@H](CO)NC(=O)[C@@H](NC(=O)[C@H](Cc1ccccc1)NC(=O)[C@@H](NC(=O)CNC(=O)[C@H](CCC(=O)O)NC(=O)C(C)(C)NC(=O)[C@@H](N)Cc1ccc(O)cc1)[C@@H](C)O)[C@@H](C)CC)[C@@H](C)CC)C(=O)N[C@@H](Cc1c[nH]cn1)C(=O)N[C@@H](CCC(N)=O)C(=O)NC(C)(C)C(=O)N[C@@H](CC(=O)O)C(=O)N[C@@H](Cc1ccccc1)C(=O)N[C@H](C(=O)N[C@@H](CCC(=O)O)C(=O)N[C@@H](Cc1ccc(O)cc1)C(=O)N[C@@H](CCCCNC(=O)COCCOCCNC(=O)COCCOCCNC(=O)CC[C@H](NC(=O)CCCCCCCCCCCCCCCCCCC(=O)O)C(=O)O)C(=O)N[C@@H](CC(C)C)C(=O)N[C@@H](CCC(=O)O)C(=O)N[C@@H](CCC(N)=O)C(=O)NCC(=O)N1CCC[C@H]1C(=O)N[C@@H](CO)C(=O)N[C@@H](CO)C(=O)NCC(=O)N[C@@H](C)C(=O)N1CCC[C@H]1C(=O)N1CCC[C@H]1C(=O)N1CCC[C@H]1C(=O)N[C@@H](CO)C(N)=O)C(C)C
Take B2: the “hGcgR cAMP Rel EC50” value in experiment [1] is above 5 µM. In addition, in experiment [2], the “hGIPR cAMP Rel EC50” value was found to be 0.0191 nM. For the same molecule, the “hGLP1R cAMP Rel EC50” value in experiment [3] was above 5000 nM.

B3: Example 93 (peptide)
peptide: Y[dA]EGTFISDYSILLDKIAQ[Aib]DFVNWK([AEEA-AEEA-γGlu-C18 diacid])LAQGPSSGAPPPS-NH2
modifications: N-terminus assumed
SMILES: CC[C@H](C)[C@H](NC(=O)[C@H](CCCCN)NC(=O)[C@H](CC(=O)O)NC(=O)[C@H](CC(C)C)NC(=O)[C@H](CC(C)C)NC(=O)[C@@H](NC(=O)[C@H](CO)NC(=O)[C@H](Cc1ccc(O)cc1)NC(=O)[C@H](CC(=O)O)NC(=O)[C@H](CO)NC(=O)[C@@H](NC(=O)[C@H](Cc1ccccc1)NC(=O)[C@@H](NC(=O)CNC(=O)[C@H](CCC(=O)O)NC(=O)[C@@H](C)NC(=O)[C@@H](N)Cc1ccc(O)cc1)[C@@H](C)O)[C@@H](C)CC)[C@@H](C)CC)C(=O)N[C@@H](C)C(=O)N[C@@H](CCC(N)=O)C(=O)NC(C)(C)C(=O)N[C@@H](CC(=O)O)C(=O)N[C@@H](Cc1ccccc1)C(=O)N[C@H](C(=O)N[C@@H](CC(N)=O)C(=O)N[C@@H](Cc1c[nH]c2ccccc12)C(=O)N[C@@H](CCCCNC(=O)COCCOCCNC(=O)COCCOCCNC(=O)CC[C@H](NC(=O)CCCCCCCCCCCCCCCCC(=O)O)C(=O)O)C(=O)N[C@@H](CC(C)C)C(=O)N[C@@H](C)C(=O)N[C@@H](CCC(N)=O)C(=O)NCC(=O)N1CCC[C@H]1C(=O)N[C@@H](CO)C(=O)N[C@@H](CO)C(=O)NCC(=O)N[C@@H](C)C(=O)N1CCC[C@H]1C(=O)N1CCC[C@H]1C(=O)N1CCC[C@H]1C(=O)N[C@@H](CO)C(N)=O)C(C)C
With B3, the “hGcgR cAMP Rel EC50” value in experiment [1] was above 5 µM. Moreover, the “hGIPR cAMP Rel EC50” value in experiment [2] is 0.00482 nM. Moreover, the “hGLP1R cAMP Rel EC50” value in experiment [3] turned out to be 884 nM.

B4: Example 90 (peptide)
peptide: Y[Aib]EGTFISDYSI[αMeL]LDKK([AEEA-AEEA-γGlu-C20 diacid])HQ[Aib]DFVE[αMeY]LLEAGPSSGAPPPS-NH2
modifications: N-terminus assumed
SMILES: CC[C@H](C)[C@H](NC(=O)[C@H](Cc1ccccc1)NC(=O)[C@@H](NC(=O)CNC(=O)[C@H](CCC(=O)O)NC(=O)C(C)(C)NC(=O)[C@@H](N)Cc1ccc(O)cc1)[C@@H](C)O)C(=O)N[C@@H](CO)C(=O)N[C@@H](CC(=O)O)C(=O)N[C@@H](Cc1ccc(O)cc1)C(=O)N[C@@H](CO)C(=O)N[C@H](C(=O)N[C@@](C)(CC(C)C)C(=O)N[C@@H](CC(C)C)C(=O)N[C@@H](CC(=O)O)C(=O)N[C@@H](CCCCN)C(=O)N[C@@H](CCCCNC(=O)COCCOCCNC(=O)COCCOCCNC(=O)CC[C@H](NC(=O)CCCCCCCCCCCCCCCCCCC(=O)O)C(=O)O)C(=O)N[C@@H](Cc1c[nH]cn1)C(=O)N[C@@H](CCC(N)=O)C(=O)NC(C)(C)C(=O)N[C@@H](CC(=O)O)C(=O)N[C@@H](Cc1ccccc1)C(=O)N[C@H](C(=O)N[C@@H](CCC(=O)O)C(=O)N[C@@](C)(Cc1ccc(O)cc1)C(=O)N[C@@H](CC(C)C)C(=O)N[C@@H](CC(C)C)C(=O)N[C@@H](CCC(=O)O)C(=O)N[C@@H](C)C(=O)NCC(=O)N1CCC[C@H]1C(=O)N[C@@H](CO)C(=O)N[C@@H](CO)C(=O)NCC(=O)N[C@@H](C)C(=O)N1CCC[C@H]1C(=O)N1CCC[C@H]1C(=O)N1CCC[C@H]1C(=O)N[C@@H](CO)C(N)=O)C(C)C)[C@@H](C)CC
For B4, in experiment [1], the “hGcgR cAMP Rel EC50” value was above 5 µM. Besides, the “hGIPR cAMP Rel EC50” value in experiment [2] was determined as 0.0272 nM. In experiment [3], the “hGLP1R cAMP Rel EC50” value was above 5000 nM.

These data come from patent US20210032299A1 (Eli Lilly, published 2021).
